Laboratory results reported in publication PMC11065761 (The Journal of Biological Chemistry, 2024).

Molecular target: C3b
Test: SPR

Kd: 98 nM
B1: TriFu_no_linker (triple fusion complement inhibitor without polyglycine linker between DAF and FH) (other)
chain: DCGLPPDVPNAQPALEGRTSFPEDTVITYKCEESFVKIPGEKDSVICLKGSQWSDIEEFCNRSCEVPTRLNSASLKQPYITQNYFPVGTVVEYECRPGYRREPSLSPKLTCLQNLKWSTAVEFCKKKSCPNPGEIRNGQIDVPGGILFGATISFSCNTGYKLFGSTSSFCLISGSSVQWSDPLPECREIYCPAPPQIDNGIIQGERDHYGYRQSVTYACNKGFTMIGEHSIYCTVNNDEGEWSGPPPECRGGKCGPPPPIDNGDITSFPLSVYAPASSVEYQCQNLYQLEGNKRITCRNGQWSEPPKCLHPCVISREIMENYNIALRWTAKQKLYSRTGESVEFVCKRGYRLSSRSHTLRTTCWDGKLEYPTCAKRGHCQAPDHFLFAKLKTQTNASDFPIGTSLKYECRPEYYGRPFSITCLDNLVWSSPKDVCKRKSCKTPPDPVNGMVHVITDIQVGSRINYSCTTGHRLIGHSSAECILSGNTAHWSTKPPICQRIPCGLPPTIANGDFISTNRENFHYGSVVTYRCNLGSRGRKVFELVGEPSIYCTSNDDQVGIWSGPAPQCII
